Assay results reported in patent publication US20250282887A1 (Amgen, published 2025).
Positions count from the first letter of the chain named. Blank lines part the entries; values can stand above or below the binder they belong to.

What was measured:
[1] = molecular target: T1, Human MAGEB2 (Melanoma-associated antigen B2) (human, UniProt O15479 1-319); assay: IHC on FFPE NCI-H1703 cells (endogenous MAGEB2)
T1 construct: Intracellular antigen detected by IHC in FFPE material: CHO cells transfected with human MAGEB2 (mCherry vector with Myc/DDK tags, or ORF without tags)
T1 sequence: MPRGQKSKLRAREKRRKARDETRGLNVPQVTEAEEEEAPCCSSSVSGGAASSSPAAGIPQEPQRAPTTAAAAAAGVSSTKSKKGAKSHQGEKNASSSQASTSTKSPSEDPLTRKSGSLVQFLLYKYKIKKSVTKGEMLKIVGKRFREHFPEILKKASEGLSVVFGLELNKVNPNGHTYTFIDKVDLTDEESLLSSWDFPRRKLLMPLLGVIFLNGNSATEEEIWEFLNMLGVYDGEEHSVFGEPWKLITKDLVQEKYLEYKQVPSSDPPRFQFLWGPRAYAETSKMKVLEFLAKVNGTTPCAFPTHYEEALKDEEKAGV
Method: (§1) FFPE samples were sectioned at 4 μm and mounted on positive charged glass slides. After mounting, paraffin sections were air-dried at room temperature. FFPE TMA samples were received as freshly sectioned and mounted on glass slides. The fully automated IHC assay was performed on a Discovery Ultra Stainer (Ventana Medical Systems, Tucson, AZ) using Ventana Anti-Rabbit HQ (cat #760-4815), Ventana Anti-HQ HRP (cat #760-4820), and Ventana Antibody Diluent with Casein (cat #760-219) (Ventana Medical Systems, Tucson, AZ). The slides were baked on the Discovery Ultra Stainer at 60° C. for 8 minutes, de-paraffinized with Ventana Discovery wash (cat #950-510) for 3 cycles (8 minutes each) at 69° C., and underwent cell conditioning (target retrieval) at 95° C. for 16 minutes (for cell arrays) or 32 minutes (tissues or TMAs) in CC1 buffer (cat #950-500). Following this, slides were incubated with Background Sniper (cat #BS966M, Biocare Medical, Pacheco, CA) in a Ventana Option Prep kit (cat #771-751) for 28 minutes, incubated with CM inhibitor (a part of the Ventana DAB kit cat #760-159) for 12 minutes, and incubated for 1 h at RT with MAGE-B2 antibody diluted with Ventana diluent with Casein in a Ventana Prep kit (cat #770-001) (working concentration at 0.1 μg/ml for cell pellet, or 1-5 ug/ml for tissues) or with a matched concentration of isotype control Rabbit IgG1 antibody. Following this, slides were incubated with the Ventana Anti-Rabbit HQ (cat #760-4815) for 28 minutes at RT, Ventana Anti-HQ HRP (cat #760-4820) for 28 minutes at RT, and signals detected with Ventana DAB chromogen kit (cat #760-159) for 5 minutes at RT. Slides were counterstained with Ventana Hematoxylin II (cat #5266726001) for 8 minutes and Ventana Bluing reagent (cat #526676900) for 4 minutes. Slides were coverslipped and digitized using an Aperio AT2 scanner (Leica Biosystems Inc, Buffalo Grove, IL).

human MAGEA5 = molecular target: T2, human MAGEA5 (human, UniProt P43359 1-124); assay: IHC, FFPE CHO cells transfected with human MAGEA5
T2 construct: whole, on cells; FFPE cell pellets
T2 sequence (looked up): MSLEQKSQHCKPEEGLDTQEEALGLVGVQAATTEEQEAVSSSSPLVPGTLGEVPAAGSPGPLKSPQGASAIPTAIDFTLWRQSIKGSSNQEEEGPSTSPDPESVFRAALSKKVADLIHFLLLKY
From the text: (§2) Negative control cells included parental Chinese hamster ovary (CHO) cells, CHO cells stably transfected with mCherry Vector Control (minus Myc/DDK tags), CHO cells stably transfected with mCherry-human DCAF4L2 (plus Myc/DDK tags). The cross-reactivity control cells included CHO cells transfected with mCherry Vector Control (plus Myc/DDK tags) with one of the human MAGE-B or MAGE-A family members (MAGEA1, MAGEA2, MAGEA3, MAGEA4, MAGEA5, MAGEA6, MAGEA8, MAGEA9, MAGEA11, MAGEA12, MAGEB1, MAGEB3, MAGEB4, MAGEB5, MAGEB6, MAGEB10, MAGEB16, MAGEB17, MAGEB18). Positive control cell lines included CHO cells transfected with mCherry Vector (plus Myc/DDK tags) with human MAGE-B2 or CHO cells transfected with mCherry Vector (open reading frame (ORF); minus Myc/DDK tags) with human MAGEB2, and thirteen human cancer cell lines with known endogenous RNA expression level of MAGEB2 (U266B1, T98G, KMM-1, U20S, CFPAC-1, SCaBER, UACC-257, CFPAC-1, VMRC-LCD, NCI-H1703, UM-UC-3, NCI-H1395, NCIH82).
as §1, with “antibody.” for “antibody. Following this, slides were incubated with the Ventana Anti-Rabbit HQ (cat #760-4815) for 28 minutes at RT, Ventana Anti-HQ HRP (cat #760-4820) for 28 minutes at RT, and signals detected with Ventana DAB chromogen kit (cat #760-159) for 5 minutes at RT. Slides were counterstained with Ventana Hematoxylin II (cat #5266726001) for 8 minutes and Ventana Bluing reagent (cat #526676900) for 4 minutes. Slides were coverslipped and digitized using an Aperio AT2 scanner (Leica Biosystems Inc, Buffalo Grove, IL).”

human MAGEB1 = molecular target: T3, human MAGEB1 (human, UniProt P43366 1-347); assay: IHC, FFPE CHO cells transfected with human MAGEB1
T3 construct: whole, on cells; Transfected into CHO cells with Myc/DDK tags
T3 sequence (looked up): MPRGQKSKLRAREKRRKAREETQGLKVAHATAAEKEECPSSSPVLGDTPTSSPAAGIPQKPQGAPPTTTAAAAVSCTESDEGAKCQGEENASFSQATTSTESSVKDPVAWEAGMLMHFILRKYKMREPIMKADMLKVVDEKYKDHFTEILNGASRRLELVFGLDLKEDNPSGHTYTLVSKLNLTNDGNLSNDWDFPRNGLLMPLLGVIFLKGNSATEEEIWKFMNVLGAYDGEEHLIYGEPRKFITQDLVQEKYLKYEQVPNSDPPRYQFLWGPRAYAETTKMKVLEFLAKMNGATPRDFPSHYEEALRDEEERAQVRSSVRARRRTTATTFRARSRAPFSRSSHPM
From the text: as §2
as §1, with “antibody.” for “antibody. Following this, slides were incubated with the Ventana Anti-Rabbit HQ (cat #760-4815) for 28 minutes at RT, Ventana Anti-HQ HRP (cat #760-4820) for 28 minutes at RT, and signals detected with Ventana DAB chromogen kit (cat #760-159) for 5 minutes at RT. Slides were counterstained with Ventana Hematoxylin II (cat #5266726001) for 8 minutes and Ventana Bluing reagent (cat #526676900) for 4 minutes. Slides were coverslipped and digitized using an Aperio AT2 scanner (Leica Biosystems Inc, Buffalo Grove, IL).”

B1: 1I14 (antibody, V domains shown)
VH: QSVEESGGRLVTPGTPLTLTCTISGFSLSSYAMSWVRQAPGKGLEWIGSIGGGGSAVYASWAKGRFTISKTSTTVDLRITSPTTEDTAMYFCGRGFYSIDLWGPGTLVTVSS
VL: DVVMTQTPASVEATVGGTVTIKCQSSQSVYDNNALAWYQQNAGQRPRLLIYGASTLASGVPSRFSASGSGTEFTLTISDLECADAATYYCQCTYYVSSYQNDFGGGTEVVVKG
notes: also called MAGE-B2 (1i14)
IHC % Frequency [1]: 0% | binding result (human MAGEA5): no binding (tested: 0.1 µg/ml) | binding result (human MAGEB1): no binding (tested: 0.1 µg/ml)

B2: 1C3 (antibody, V domains shown)
VH: QSLEESGGGLVQPEGSLTLTCTAFGVTLTNYYICWVRQAPGKGLEWVGCIDNANGRTYYASWAKGRFTISKTSSTTGTLQMTSLTAADTATYFCARSLATPLWGPGTLVTVSS
VL: DIVMTQTPSSVEAAVGGTVTIKCQASQNISSYLAWYQQKPGQPPKLLIYRASTLASGVPSRFKGSGSGTQFTLTISDLECADAATYYCQSYDDSRSSNFFYAFGGGTEVVVKG
notes: also called MAGE-B2 (IC3); anti-MAGEB2 antibody 1C3
IHC % Frequency [1]: 0% | binding result (human MAGEA5): no binding (tested: 0.1 µg/ml) | binding result (human MAGEB1): no binding (tested: 0.1 µg/ml)

Now from value to binder:

IHC % Frequency [1]: 0% | IHC Intensity [1]: 0 | binding result (human MAGEA5): no binding (tested: 0.1 µg/ml) | binding result (human MAGEB1): no binding (tested: 0.1 µg/ml)
B3: 4G17 (antibody, IgG1, V domains shown)
VH: B2 VH with F24S, T29S, V47I, A53V
VL: DIVMTQTPASVEAAVGGTVTIKCQASQNIDSYLAWYQQKPGQPPKLLIYRASTLASGVPSRFKGSGSGTEFTLTISDLECADAATYYCQSYDDSRSSSFFYGFGGGTEVVVK
notes: Rabbit monoclonal IgG1; Tested as supernatant and as small batch purified antibody; also called MAGE-B2 (4G17); anti-MAGEB2 antibody 4G17

IHC % Frequency [1]: 0% | binding result (human MAGEA5): no binding (tested: 0.1 µg/ml) | binding result (human MAGEB1): no binding (tested: 0.1 µg/ml)
B4: 1J15 (antibody, IgG1, V domains shown)
VH: B2 VH with V26F, T29N, V47I, G48A, G77V, A99S
VL: B3 VL with N28S, D30S, A34S, K63R, E70Q, R95S, S96D, S97N, S98N, K112R
notes: Rabbit monoclonal IgG1; Tested as supernatant and as small batch purified antibody; also called MAGE-B2 (IJ15); anti-MAGEB2 antibody 1J15
